B1: CYP505Ao: CYP505 cytochrome P450 monooxygenase from Aspergillus oryzae, SEQ ID No 9 (protein, listed as Aspergillus oryzae)
chain: MRQNDNEKQICPIPGPQGLPFLGNILDIDLDNGTMSTLKIAKTYYPIFKFTFAGETSIVINSVALLSELCDETRFHKHVSFGLELLRSGTHDGLFTAYDHEKNWGLAHRLLVPAFGPLRIREMFPQMHDIAQQLCLKWQRYGPRRPLNLVDDFTRTTLDTIALCAMGYRFNSFYSEGDFHPFIKSMVRFLKEAETQATLPSFISNLRVRAKRRTQLDIDLMRTVCREIVTERRQTNLDHKNDLLDTMLTSRDSLSGDALSDESIIDNILTFLVAGHETTSGLLSFAVYYLLTTPDAMAKAAHEVDDVVGDQELTIEHLSMLKYLNAILRETLRLMPTAPGFSVTPYKPEIIGGKYEVKPGDSLDVFLAAVHRDPAVYGSDADEFRPERMFDEHFQKLPANSWKPFGNGKRSCIGRAFAWQEALMILALILQSFSLDLVDRGYTLKLKESLTIKPDNLWAYATPRPGRNVLHARLALQTNSTHPEGLMSLKHETVESQPATILYGSNTGTCEALAHRLAIEMSSKGRFVCKVQPMDEIEHRRLPRGQPVIIVTGSYDGRPPENARHFVKWLQSLEGNDLEGIQYAVFGCGLPGHHDWSTTFYKIPTLIDTIMAEHGGARLAPRGSADTAEDDPFVELESWSERRVWPGLEAAFDLVRHNSSDGTGKSTRITIRSPYTLRAAHETAVVHQVRVLTSAETTKKVHVELALPDTINYRPGDHLAILPLNSRQSVQRVLSLFQIGSDTILYITSSSATSLPTDTPISAHDLLSGYVELNQVATPTSLRSLAAKATDEKTAEYLEALATDRYTTEVRGNHLSLLDILESYSVPSIEIQHYIQMLPPLRPRQYTISSSPRLNRGQASLTVSVMERADIGGPRNCAGVASNYLASCTPGSILRVSLRHANPDFRLPDESCSHPIIMVAAGSGIAPFRAFVQERSVRQKEGIILPPAFLFFGCRRADLDDLYREELDAFEEQGVVTLFRAFSRAQSESHGCKYVQDLLWMERVRVKTLWGQDAKVFVCGSVRMNEGVKAIISKIVSPTPTEELARRYIAETFI
B2: CYP505Hv: CYP505 cytochrome P450 monooxygenase from Hypocrea virens, SEQ ID No 10 (protein, listed as Hypocrea virens)
chain: MKPAKNPNLVEIPKPKGLPVIGSLHHIDLESPLFSLIELIQPLGPICQLTFGSELNIFVSSIELLNELCDESRFQKIVTAELEKLRHVVHDGLFTARNEERNWEIAHRILMPVFGTIKIREMFPEMKDLAQQLCLKWARYGEEYVIDVTADFTRLTLDTLALCTMGFRFNSFHNGTVLHPFVDSMVRTLKEASVQAALPNFINSLRKKSWRRYEKDTAFMRKLCQDIIDKRKSQTDTDSHDLLAALLRGRDPKTGEGLSDDSIIDNMLTFLIAGHETTSGLLSFAMYYLLANPQTMEKARQEVDEVSQGSPIAVEHLSKLPYLNAVLKETLRLQPTAPGFILSSPKDEIIGGKYLIPANIPIGVLLHMVHLDKAVYGEDAAEFKPERMLDENFNKLPPNSWKPFGNGMRGCIGRAFATQEALLIVAMLLQSFTFEMADPGYKLKIKETLTVKPDNFRMKAKLRRGGTATDFQRELQSLGSVGAKLSSTPSVTSAQTGGGDKKPLTILYGSNSGTCEALAYRLASDATLHGFYARKIAPLNAARNSLPKSEPVIILAASYDGLPSDNAEEFFDWLNTAEKDSLKGVSYSVFGCGHRDWVATFQRVPILIDDLLQRAGAERFANRGLADSAVMDLFVELEKWTTDSVWPAISQTDGKQDNDGEGKLISSLLKVEFSQPRQLQQYSHLVEATVMESRSLTTPSAIGKKMHVDIQLPSGVSYHPGDHLLVLPVNPIRNVKRVLSRFHLTWDTIVRASGNESVRIPIETAMTVHELLSSYFELAQPATPRDIRVLAAAAEDEATKQVLNNLATTSYLEDIQEKKTSLLDLLEKFPEISIAFGTYLTLLPSLRLRTYSISSSPSWNSSRATLTLSVLDEPATTPGSKRYLGVASNHLAGLTPGDLIHVATRPVKGIFQMPADLSKAPTIMIAAGAGLAPFRGFIQERAYQQQNGVQLAPAALFFGCRSSHDDLYRSELDAFESSGVIRVFRAYSREDVGSKSNTRKGYVQDSLQAEKDVFVQLWNAGAKVYVCGSVKMASQVKDLVANLVYTAEPMDAQKEFTPQEWFKRFEKTRYAAEIFT
B3: CYP505Om: CYP505 cytochrome P450 monooxygenase from Oidiodendron maius, SEQ ID No 11 (protein, listed as Oidiodendron maius)
chain: MTKKNHALIPIPGPSVWPLLGNLFDIDTEHGLASVLEMGRSYGDIFQLVLGGNKLVFLQTHALFDEVCDESRFCKVVVSGLGNLRAGVNDGLFTAHDGEHNWGVAHRIIMPIFGPIKIRETLGGMKDVCQELSLKWARYGPDHRIDIAGDLTRLTLDTIAFCTMGYRFNSFYRNSDVHPFVKSMVGFLREADKSSMIPEYLNAFRWKARRSFLGDIASMREMSMMILNLRRGNPSDRDDLLNALLHGRDPKTGEGMSDESIINNLITFLVAGHETTSGALSFVFYYLLTNPESLKNAREEVDRVIGAGNITADHLSKLPYIDAVLREALRLNPTGPAITLGAREDTTLGGKYAVKKGEPVLCMFHNIHRDKKVYGEDADEWKPERMMDENFNKLPKNAWKPFGNGTRGCIGRAFAWQESQLVIASILQNFDLTLDNPDYKLEIVETLTIKPGNFYVRAKLRSGRTPRELCGFSNPISTNIQIKNGTIAPANDGQVGNSTPVTILYGSNSGTCEALAHRLARDAPSYGYSVTTVATLDSVIGILPRAKDELVVIITCSYDGLPADNAVRFCNWLKTLDEDALGGMPFAVFACGHHDWAKTFYKVPIMIDELLARAGAHRVAQMGKANSAVSDMFSDLENWEDEHLWSSSSAAGNETVDNVARTEVKQDITITNPRARALHHNAVECIVSETHKLSESGSALKYHVEIQLPANMKYAPGDHLSVLPINPRQNVRRALARFHLAGDSVLSVARIGHMGTLGQETLSAFDVFASYVELSQPATRRNIATLLSVTPEGEGRYELAELGGAAFESQIRDMRVSVLDLLERYKAIKLCVGAFIDMLPPLRVRTYSISSSALWKPSHASLTISVLAQPALSGQGSFLGVASNFLADLVPGDAVHFTIRPCKKQFHLPDDASAHPIIMVAAGSGIAPFRGFIQDRALQRRNGVQLQPAILFFGCRGSKQDDLYRQELDEFEAEGVVSVRRAFSGEETVSISESRMYVQDRMWADRAEVIQLWNLGAKIYVCGGINMADGVREIFNEIVGPTEVDGKRGAESLNKLSEETMSARYVAEIFSQT

assay type: cell-based, P. pastoris
Experimental: Precultures of P. pastoris transformants were prepared in buffered complex glycerol media (BMGY). BMGY contained: 10 g/l yeast extract, 20 g/l peptone, 3.4 g/l yeast nitrogen base, 10 g/l ammonium sulfate, 100 mM potassium phosphate (pH 6), 0.4 mg/l biotin and 1% (v/v) glycerol. Erlenmeyer flasks (500 ml) containing 50 ml BMGY media were inoculated with single colonies of 24 h old YPD-agar cultures of P. pastoris KM71 mut^s3/CYP505E3 and incubated at 30° C. and 225 rpm for 24 h. The cultures were harvested using pre-weighed centrifuge tubes at 3000 g for 5 min and stored on ice until further use.
The main cultures for expression were prepared in buffered complex methanol media (BMMY) containing 10 g/l yeast extract, 20 g/l peptone, 3.4 g/l yeast nitrogen base, 10 g/l ammonium sulfate, 100 mM potassium phosphate (pH 6), 0.4 mg/l biotin and 0.5 or 1% (v/v) methanol. Harvested cells from precultures were resuspended in BMMY media to final concentration of 1 g WC per 40 ml (appx. 25 g/l). The resuspended cultures (100 ml) were transferred to 500 ml Erlenmeyer flasks and incubated at 25° C. and 225 rpm for 24 h. The cultures were then harvested at 3000 g for 5 min using pre-weighed centrifuge tubes.
Different transformants of Pichia pastoris KM71 harbouring the CYP505 genes for SEQ ID Nos 1 to 7 and 9 to 12 were grown and harvested as described above. The harvested cells were resuspended to give 1 g wet cell weight in 40 ml MOPS buffer (200 mM, 100 mM glucose, 100 mM glycerol, pH 8) and 1 ml aliquots of these cell suspensions were transferred to 40 ml amber vials. Dodecane, 1-dodecanol and 1-tetradecanol were added neat to these cell suspensions to give final concentrations of 200 mM in the case of the alcohols and 1 M in the case of dodecane while in the case of dodecanoic acid 20 μl of a 500 mM stock solution (in DMSO) was added to give a final concentration of 10 mM. Transformants harbouring the CYP505 genes for SEQ ID Nos 1 to 4 were tested for the biotransformation of 1-dodecanol, 1-tetradecanol, dodecanoic acid, tetradecanoic acid and dodecane, while those harbouring the CYP505 genes for SEQ ID Nos 5 to 7 and 9 to 12 were only tested for the biotransformation of 1-dodecanol and dodecanoic acid. The biotransformations were incubated at 25° C. and 225 rpm for 24 h. Extractions were performed using ethyl acetate (500 μl×2). The extracts were analyzed using GC/MS.

ω-7 hydroxylase activity C12FA, −:
B1, B2, B3

ω-7 hydroxylase activity C12ol, −:
B1, B2, B3
